Laboratory results from the DeepSol protein solubility set.

Assay: soluble on expression in E. coli; label from the status in PepcDB or PDB records

Row | Sequence | soluble on expression in E. coli
1 | GMLTENPVLQAIRQRRSIRRYTDEAVSDEAVRLILEAGIWAPSGLNNQPCRFLVIRADDPRCDILAAHTRYGHIVRGAKVIILVFLDREAMYNEVKDHQAAGAAVQNMLLAAHALQLGAVWLGEIINQAATLLPALALDPARLSFEAAIAAGHPAQNGSSSRRPLAELLLEEPFPQPE | soluble
2 | MGSDKIHHHHHHMTYIALGMAAIGRPHYINIKTIDSPKDLTKAELHAHATAVLDAAYAMGIRHIDTAPGYGIAEEILIDWLRRSGHEDMTVSTKWGYTYTANFEKNPLQHEVKEHSLHVLQQQWLYSRQLLPPLNMYQIHSATSDSGVLNNQGVLDKLFELKEQFGIEIGLTTSGLTQNATIQQALKITNQGKPLFTIFQVTYNVFEQSIADSVALLKNQGARIIIKEGLANGRIFTCADFPQYAPAYALLERLAGKYHVGVDAVALRFCIDALRPLYVLSGAATIVQLKENLLAETFTLQSEELEELKSIHVASEAYWNERKQLKWN | not soluble
3 | EKLTLAEKVWRDHVVSKGENGEPDLLYIDLQLLHEVTSPQAFDGLRMTGRKLRHPELHLATEDHNVPTEGIKTGSLLEINDKISRLQVSTLRDNCEEFGVRLHPMGDVRQGIVHTVGPQLGATQPGMTIVCGDSHTSTHGAFGSMAFGIGTSEVEHVMATQTLPLKPFKT | not soluble
4 | MIEFRNVSKVYPNGTKGLNNINLKIQKGEFVVMVGLSGAGKSTLLRSVNRLHEITEGEIMIEGESITAAKGKGLRRMRRDIGMIFQSFNLVKRSTVLKNVLAGRVGYHSTLRTTLGLFPKEDLELAFQSLKRVNILEKAYARADELSGGQQQRVSIARALAQEAKIILADEPVASLDPLTTKQVLEDLKKINEDFGITTIVNLHSIDLARQYATRIIGLHAGEIVFDGLVEEATDEKFAEIYGDVVQKSELLEVAVK | not soluble
5 | MPRVWKFGDQINTDDILPGKYAPFMVGEDRFHLYAFAHLRPEFAKEVRPGDILVFGRNAGLGSSREYAPEALKRLGIRAIIAKSYARIFFRNLVNLGIVPFESEEVVDALKDGDEVELDLESGVLTRGEERFLLRPPPPFLLEALKEGSLLDYYKKHGRFPGE | soluble
6 | MSLNAEEKKGLQRAIEEITEIAKGFGLDFYPMRYEICPAEIIYTFGAYGMPTRFSHWSFGKQFHKMKLHYDLGLSKIYELVINSDPCYAFLLDSNSLIQNKLIVAHVLAHCDFFKNNCRFQNTKRDMVESMAATAERIKHYEQVHGIKEVESFLDAILSIQEHIDPSLVRPKLQWSVDDEEEEIEEAATPYDDLWSLDEKKPKKQVKKSKKPFPPRPEKDILLFIEEHSRELEPWQRDILTMMREEMLYFWPQLETKIMNEGWASYWHQRIIRELDLTSDEAIEFAKLNAGVVQPSKTGINPYYLGLKIFEDIEKRYNNPTEEMKKMGVQPDSGREKMFEVREIESDISFIRNYLTKELVMREDLYLFQKQGRDYKIIDKQWKSVRDQLVSMRVNGGFPYLTVNDGDYMKNNELYIKHWYEGIELDLKYLEKVLPYLFQLWGRSVHIESVLEDKEVMFSYDGKGVHRRYLEGHHHHHH | not soluble
7 | MGSDKIHHHHHHMRETPFRLLLDARACRKKGSAAILQRQRERLVEMVTYARTCSPYYRQLYQGLPARITDPRLLPVTTKAALMAHFDDWVTDPAVTLEGTQSFVADPSLLGEKFLNRYTAATTSGTTGTRGLFLLDTRTLAVSKALTFRMLSSWLTPADLMGIIRGRGRIAMVVATGGHFASAAAAAALRKGPARHSVRVFPVQTPIPDLVAQLNSFRPALLAPYASTGRLLASEQEAGRLTIQPVAVILSAEGLPAGEYARISGAFGAKVRQGYAATECPFLSYSCQEGWLHVNSDWAILEPVDANHEPVPPGQPSHTVLLSNLANRIQPILRYDLGDSVTARTDPCRCGDPTPAIHVQGRNAELLTLQGNRLAVAVTPLTLSTALDRVQGLSKGQIIQTGPQSLSLRLQPAAGADPENVWESARSEITRALTSHGLGNVTITRDAGPPLLTPGGKHRTVVPLPP | not soluble
8 | MGSDKIHHHHHHMKLETIDYRAADSAKRFVESLRETGFGVLSNHPIDKELVERIYTEWQAFFNSEAKNEFMFNRETHDGFFPASISETAKGHTVKDIKEYYHVYPWGRIPDSLRANILAYYEKANTLASELLEWIETYSPDEIKAKFSIPLPEMIANSHKTLLRILHYPPMTGDEEMGAIRAAAHEDINLITVLPTANEPGLQVKAKDGSWLDVPSDFGNIIINIGDMLQEASDGYFPSTSHRVINPEGTDKTKSRISLPLFLHPHPSVVLSERYTADSYLMERLRELGVL | not soluble
9 | MKVAIASDHGGVHIRNEIKELMDELQIEYIDMGCDCGSGSVDYPDYAFPVAEKVVSGEVDRGILICGTGIGMSISANKVKGIRCALAHDTFSAKATREHNDTNILAMGERVIGPGLAREIAKIWLTTEFTGGRHQTRIGKISDYEEKNL | soluble
10 | QRDIPVQFIVAGVKRSDLRNLVEERIRKEGTKTREIRYREIGHYNGSVENIHLSVDKYEAAGGTEYFISYVTDDDHIVGFVRLRQPSEMAHRQEMLGSAIVRELKVFGQEVPVGRRDLKNWQHHGYGMRLMEEAERIARDDLGLDRILVISGIGVRQYFRKIGYEDLGPYVAKSLK | not soluble
11 | MGSSHHHHHHSSGLVPRGSHMAVSGPDDYLQHSIVPTMHYQDSLPRLPIPKLEDTMKRYLNAQKPLLDDSQFRRTEALCKNFETGVGKELHAHLLAQDKQNKHTSYISGPWFDMYLTARDSIVLNFNPFMAFNPDPKSEYNDQLTRATNLTVSAVRFLKTLQAGLLEPEVFHLNPSKSDTDAFKRLIRFVPPSLSWYGAYLVNAYPLDMSQYFRLFNSTRIPRPNRDELFTDTKARHLLVLRKGHFYVFDVLDQDGNIVNPLEIQAHLKYILSDSSPVPEFPVAYLTSENRDVWAELRQKLIFDGNEETLKKVDSAVFCLCLDDFPMKDLIHLSHTMLHGDGTNRWFDKSFNLIVAEDGTAAVHFEHSWGDGVAVLRFFNEVFRDSTQTPAITPQSQPAATNSSASVETLSFNLSGALKAGITAAKEKFDTTVKTLSIDSIQFQRGGKEFLKKKQLSPDAVAQLAFQMAFLRQYGQTVATYESCSTAAFKHGRTETIRPASIFTKRCSEAFVRDPSKHSVGELQHMMAECSKYHGQLTKEAAMGQGFDRHLYALRYLATARGLNLPELYLDPAYQQMNHNILSTSTLNSPAVSLGGFAPVVPDGFGIAYAVHDDWIGCNVSSYSGRNAREFLHCVQKCLEDIFDALEGKAIKT | soluble
12 | MSLKALHFGAGNIGRGFIGKLLADAGIQLTFADVNQVVLDALNARHSYQVHVVGETEQVDTVSGVNAVSSIGDDVVDLIAQVDLVTTAVGPVVLERIAPAIAKGQVKRKEQGNESPLNIIACENMVRGTTQLKGHVMNALPEDAKAWVEEHVGFVDSAVDRIVPPSASATNDPLEVTVETFSEWIVDKTQFKGALPNIPGMELTDNLMAFVERKLFTLNTGHAITAYLGKLAGHQTIRDAILDEKIRAVVKGAMEESGAVLIKRYGFDADKHAAYIQKILGRFENPYLKDDVERVGRQPLRKLSAGDRLIKPLLGTLEYGLPHKNLIEGIAAAMHFRSEDDPQAQELAALIADKGPQAALAQISGLDANSEVVSEAVTAYKAMQEGGSHHHHHH | soluble
13 | MGSDKIHHHHHHMSKFKVKRLTAHILMLKVINDMLKYSFHLTLTQVKLLNLLVKYDNSDSNSASIDRLLKMKEIQSKMALLQMLSYLNNHQWLLKGRDQRDQRKLTISINKMHIDKIEYMNNELSDYIERYFGQYTFDFSCDYVSYLLSSQELFRNLKCYLNMCQLTLEELYVLGILNLHKGQLTVKELQGEFHHPIFAVSPILKCLILKGLVKKERCELDERRVIVTIKREKFSKVTMLIQACYNYLEKGIQVKLNNK | not soluble
14 | MEVKEMFSLGGGLGRSKVDESKVWDVIIIGAGPAGYTAAIYAARFGLDTIIITKDLGGNMAITDLIENYPGFPEGISGSELSKKMYDQVKKYGVEVIIDEVIRIDPAECAYYEGPCNFVVKTANGKEYKAKTIIIAVGAEPRKLNVPGEKEFTGRGVSYCATCDGPLFVGKEVIVVGGGNTALQEALYLHSIGVKVTLVHRRDKFRADKILQDRFKQAGIPAILNTVVTEIKGTNKVESVVLKNVKTGETVEKKVDGVFIFIGYEPKTDFVKHLGITDEYGYIPVDMYMRTKVPGIFAAGDITNVFKQIAVAVGQGAIAANSAKEFIESWNGKTIE | soluble
15 | MMMFLPPEVVREIHEERVKKALENLKAIELEKELLEKVVKEEKKVSSRRRRREKETVEV | not soluble
16 | MGHHHHHHSHMVPGSEGPARAGSVVADVVFVIEGTANLGPYFEGLRKHYLLPAIEYFNGGPPAETDFGGDYGGTQYSLVVFNTVDCAPESYVQCHAPTSSAYEFVTWLDGIKFMGGGGESCSLIAEGLSTALQLFDDFKKMREQIGQTHRVCLLICNSPPYLLPAVESTTYSGCTTENLVQQIGERGIHFSIVSPRKLPAL | not soluble
17 | MSLEKQIESYYQEIAQLIIDMIPEEWAEVRFYAQEDHDGWKIFFFHYLSASSDEWTKDIDIRDVIKVPQDEFMEKYNELSFCISDFRKDYAEAFGEPWMSFQMTFYASGKFNIDFYYDKNPFDTFLTRLAWQYEHFGTIPEDSFYKETLNEYLEEKAQGKRYPFLEPLKEEEGHHHHHH | soluble
18 | MKKTKIVALSMMNSQTSGNPSRGTTKFESYTFDYWQYIDTLVYWGGSSGEGIIVTPSADVIDEAHSNGVPVLGTIFLPPKEYGGKVDWVKTMLKKDEQGQYPFASQMVKVAKTYGFEGWFINEETQGLNADDAANMKALIQQVKKEDSSLQIMWYDAMTKDGKVDWQNQLNDQNATFVQDKAADAMFLNFWWTQNNLADQKLLEKSNLYAKNHNIDPYNIYAGIDVQAKDVQTPVKWNLLEKGNQATQTSIGLYAASATYTNASNWDDFQNRESAFWVNQKADPRQVDHSVNESWTGLSKYVLEKSAISGNEFNTNFNLGNGYNYFKAGQKISEMDWNDRSLAGILPSYRWIIDNEGKNKISPSFDFANAYNGGNSLKFMAEHLDAGKSSNITLFASDLKIAMGAKFSVSMRSDQALKVSAILELANGQKVSIAGDKSLTENWSKLEHHHHHH | not soluble
19 | MGSDKIHHHHHHMTANEKKDLAHARVSASDGADAWVRFTVAGKRFDMPVVINASTRSLGASIIVNRMLSRRAPNDARPLMLVTQHITSRMADDLIAKGIPFLDTAGNAYLHEPEATIMIVGRDKPALNLKNPTSRSTTPKGLRVTFALLTQPGLVHAPYRTIADRSAVALNTVNLAMDDLIYRGLVVHKGARRVIADRRRLIEEWASLFPTRLRPKLSPCRFTSWTKESNWWSRPEILDIDARLGGEAGADILTHEIKPASLTIYSHRGITPRLMLNGMLRPDDRGNVEVLETFWPAKAEEGWNLPHREVVHPLLIYSDLITSGDDRNRAVAQTIYDRYLAKERA | not soluble
20 | MGAMESLRWMEARLPEILKDLEAFVRRESPSGDLEGLEAAARFLEEAFGPLEGRLSRKDTPAGPVLLLKREGEGAPVLLLCHYDTVHPKGSFPEPFRLEREKAIGPGVYDMKGGIIALLYALRYAEATGRRLPALEVLFTPDEEVGSPESRPLIEAAAKKARAVLVLEPPTAEGHLKVARKGVGLYRLRAIGKAAHQGVEPEKGVNAILELAHQVLKVAALEDREKGTTLGPNRIRGGTATNVVAEEAEVEIDLRAWTLEEVQRVEEGLKALKPVLPGARLVLSGGLNRPPMEPTEASLALFAKARAIGEALGLRLEPGRVGGGSDGNFTAALGVPTLDGLGLFGGNAHQKTEYVVVPEIPRRTALLAELLAAL | soluble
